Experimental findings from patent publication US20240101675A1 (BIOLOJIC DESIGN, published 2024) are described below.

Like-named read-outs stand apart in the source and are kept apart here.

A word on the Kd: it is a measure of binding affinity in units of concentration. As usually defined, the koff is the rate constant with which the complex falls apart. High values mean fast dissociation, low ones slow dissociation. For orientation: kon means the second-order rate constant of association. Read a high kon as fast association. As a reminder, the EC50 is the concentration giving half of the maximal effect. The term EC50 (read off the curve) denotes the concentration giving half of the maximal effect.

For one assay, the target named is T1, recombinant human IL-13 (human, UniProt P35225 35-146).
T1 construct: also called rh-IL-13; rhIL-13
Briefly: SPR, IgG captured, hIL-13 as analyte, steady state.

In the next assay the target is T2, human TSLP (human, UniProt Q969D9 29-159).
T2 construct: also called hTSLP; h-TSLP
The experiment in a line: SPR (ProteOn XPR36), IgG captured, hTSLP as analyte 3.2 to 0.2 nM.

Assay [1] concerns the target T3, recombinant human PD-1 tagged with histidine tag (hPD-1-His) (human, UniProt Q15116 25-167, limits assumed).
T3 construct: bought (Reprokine); not shown: histidine tag
The experiment in a line: yeast surface display flow cytometry: scFv on yeast, 111 nM hPD-1-His, anti-His-APC; median RFU.

Assay [2] addresses T3, recombinant human PD-1 tagged with …. Briefly: yeast surface display flow cytometry: scFv on yeast, 30 nM hPD-1-His, anti-His-APC; median RFU.
The target in assay [3] is T4, recombinant human OX40 tagged with histidine tag (hOX40-His) (human, UniProt P43489 29-216).
T4 construct: bought (Reprokine); also called hOX-His; not shown: histidine tag
T4 sequence (looked up): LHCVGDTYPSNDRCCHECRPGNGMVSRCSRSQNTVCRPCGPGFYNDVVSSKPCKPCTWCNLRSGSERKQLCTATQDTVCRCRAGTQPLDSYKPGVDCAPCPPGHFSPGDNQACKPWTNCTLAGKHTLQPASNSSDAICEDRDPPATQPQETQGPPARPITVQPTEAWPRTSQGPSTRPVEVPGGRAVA
The experiment in a line: yeast surface display flow cytometry: scFv on yeast, 90 nM hOX40-His, anti-His-APC; median RFU. (A flow cytometer gives signals particle by particle.)

In assay [4] the target is T3, recombinant human PD-1 tagged with …. The experiment in a line: yeast surface display scFv, flow cytometry, 250 nM hPD-1-His.
Protocol: (§1) The library was screened on BioRad S3e Fluorescence Activated Cell Sorter (FACS) for high affinity binders of recombinant h-GITR-His, or recombinant h-PD1-His, or recombinant h-OX40-His (Reprokine) using mouse anti Myc-FITC (Santa Cruze, USA) and goat anti-His-APC (Miltenyi Biotec, Germany) for fluorescence labeling. […] The chosen clones were incubated for 1 hour at room temperature with recombinant h-GITR-His, or hPD1-His, or hOX40-His, at the concentrations described in the example section. Cells were washed and resuspended in ice-cold PBS 0.1% BSA buffer containing a fluorescent labeled secondary antibody as described above for 20 min and analyzed using a flow cytometer. The values obtained were normalized to expression levels.
In assay [5] the target is T5, recombinant human GITR tagged with histidine tag (hGITR-His) (human, UniProt Q9Y5U5 26-161, limits assumed).
T5 construct: bought (Reprokine); not shown: histidine tag
T5 sequence (looked up): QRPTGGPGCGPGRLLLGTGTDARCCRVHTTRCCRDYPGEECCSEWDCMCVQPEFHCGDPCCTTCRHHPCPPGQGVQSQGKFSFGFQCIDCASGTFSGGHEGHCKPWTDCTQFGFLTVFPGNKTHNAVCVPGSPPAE
Briefly: yeast surface display scFv, flow cytometry.

In assay [6] the target is T3, recombinant human PD-1 tagged with …. Briefly: yeast surface display scFv, flow cytometry.
Protocol: as §1
For assay [7], the target named is T5, recombinant human GITR tagged with …. The experiment in a line: direct ELISA, antibody coated, hGITR-His titrated 0 to 865 nM.
Protocol: (§2) IgG binding affinity was examined by ELISA experiments. ELISA plates (Greiner Bio-One-high binding) were coated with 50 ul (100 ng) of the tested antibody and incubated for 1 hour at room temperature. Then plates were washed three times with 300 μl PBS buffer containing 0.05% Tween 20 (PBS-T), blocked with 300μ PBS-T supplemented with 1% to 3% BSA, and incubated for 1 hour at room temperature (RT). Antibodies-coated plates were then washed three times with 300 μl PBS-T and incubated with serial dilutions of test ligand either hPD-1-His, or hOX40-His, or hGITR-His (Reprokine, Israel) in a final volume of 50 ul for 1-3 hours. Plates were then washed three times with 300 μl PBS-T and incubated with 50 μl anti-HIS-HRP conjugate that was diluted 1:300 in PBS (Santa Cruz Biotechnology, USA). After an additional wash step, the reaction was developed with 50 ul tetrametylbenzidine (TMB) reagent (Southern biotech, USA), and stopped with 50 ul 0.5N H₂SO₄. […] The binding affinity was determined by fitting the data to a specific binding non-linear regression model on Prisma 8 GraphPad software.
ELISA assays were used to analyze the binding affinity of the IgG1 antibodies.
Assay [8] concerns the target T3, recombinant human PD-1 tagged with …. Briefly: direct ELISA: antibody coated on the plate, hPD-1-His titrated, anti-His-HRP. In general terms: ELISA stands for enzyme-linked immunosorbent assay.
Protocol: as §2
For assay [9], the target named is T6, PD-1 on engineered Jurkat effector cells (PD-1/PD-L1 Blockade Bioassay) (UniProt Q15116 25-288, limits assumed). The experiment in a line: cell-based or functional assay.
Assay [10] has as its target T6, PD-1 on engineered Jurkat effector …. The experiment in a line: cell-based or functional assay. This is another data set of the same source.
Assay [11] deals with T4, recombinant human OX40 tagged with …. The experiment in a line: direct ELISA, antibody coated, hOX40-His titrated 0 to 500 nM.
Protocol: as §2
For assay [12], the target named is T3, recombinant human PD-1 tagged with …. Briefly: direct ELISA: antibody coated on the plate, hPD-1-His titrated, anti-His-HRP. The source holds these as a separate data set.
Protocol: as §2
Assay [13] concerns the target T4, recombinant human OX40 tagged with …. The experiment in a line: direct ELISA: antibody coated on the plate, hOX40-His titrated, anti-His-HRP.
Protocol: as §2
Assay [14] has as its target T5, recombinant human GITR tagged with …. The experiment in a line: direct ELISA: antibody coated on the plate, hGITR-His titrated, anti-His-HRP.
Protocol: as §2

T1 sequence (P35225 35-146 limits assumed): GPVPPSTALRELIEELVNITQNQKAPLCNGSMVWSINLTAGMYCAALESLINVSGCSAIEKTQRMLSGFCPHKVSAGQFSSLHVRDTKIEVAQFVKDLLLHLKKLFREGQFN
Protocol for recombinant human IL-13: Subsequent to a cycle, the analyte and tested antibody were stripped from the chip and new tested Ab was loaded on the chip as described above. KD was determined at a steady state condition.

B1: BDG33.004 (antibody, human IgG1, V domains shown)
VH: QMQLVESGGGVVQPGRSLRLSCAASGFTFRTYGMHWVRQAPGKGLEWVAVIWYDGSNKHYADSVKGRFTITRDNSKNTLNLQMNSLRAEDTAVYYCARAPQWMLVAEAFDLWGQGTMVTVSS
VL: SYVLTQPPSVSVAPGQTARITCGGNLIGSKLVHWYQQKPGQAPVLVVYDDSDRPSRIPERFSGSNSGNTATLTISRVEAGDEADYYCQVWDSSSDHVVFGGGTKLTVL
notes: human IgG1; also called BGD33.004; Clone C6 as IgG1
Regarding B1, in the assay with recombinant human IL-13, the Kd came out at 57.4 nM. In the assay with human TSLP, this molecule displayed a Kd of 3.33 nM, a koff of 0.00114 s⁻¹ and a kon of 344000 M⁻¹ s⁻¹.

B2: BDG33.003 (antibody, human IgG1, V domains shown)
VH: QMQLVESGGGVVQPGRSLRLSCAASGFTFRTYGMHWVRQAPGKGLEWVAVIWYDGSNKHYADSVKGRFTITRDNSKNTLNLQMNSLRAEDTAVYYCARAPQWELTAEAFDIWGQGTMVTVSS
VL: SYVLTQPPSVSVAPGQTARITCGGNLIGSKLVHWYQQKPGQAPVLVVYDDSDRPSLIPERFSGSNSGNTATLTISRVEAGDEADYYCQVWDSSSDGVVFGGGTKLTVL
notes: also called BGD33.003; Clone C2 as IgG1
In the case of B2, the dissociation constant (Kd) in the assay with recombinant human IL-13 was found to be 21.6 nM. In the assay with human TSLP, the Kd was 4.5 nM, the koff stood at 0.00129 s⁻¹ and the kon stood at 287000 M⁻¹ s⁻¹.

B3: G2 (GITR Library) (scFv, V domains shown)
VH: QVQLVESGGGVVQPGRSLRLDCKASGITFSNSGMHWVRQAPGKGLEWVAVIWYDGSLRYYADSVKGRFTISRDNSKNTLFLQMNSLRAEDTAVYYCATNDDYWGQGTLVTVSS
VL: EIVLTQSPATLSLSPGERATLSCRASQSVSDNLAWYQQKPGQAPRLLIYDADNRATGIPARFSGSGSGTDFTLTISSLEPEDFAVYYCQQSSNLPRTFGQGTKVEIK
notes: also called Clone G2; not shown: linker
For B3, the binding result in assay [1] is reported as “binds”.

B4: 1B_seq96_13753_B01_4279975 (OX40 Library) (scFv, V domains shown)
VH: QVQLVESGGGVVQPGRSLRLDCKASGITFSNSGMHWVRQAPGKGLEWVAVIWYDGSKRYYADSVKGRFTISRDNSKNTLFLQMNSLRAEDTAVYYCATNDDYWGQGTLVTVSS
VL: EIVLTQSPATLSLSPGERATLSCRASQSVIHYLAWYQQKPGQAPRLLIYDASNRATGIPARFSGSGSGTDFTLTISSLEPEDFAVYYCQQYSNWPLTFGQGTKVEIK
notes: not shown: linker
In the case of B4, the binding result in assay [2] and in assay [3] was “binds” each time.

B5: 3212ACOXC23 (OX40 library) (scFv, V domains shown)
VH: QVQLVESGGGVVQPGRSLRLDCKASGIDFSNSGMHWVRQAPGKGLEWLAVIWYDGSKRYYADSVKGRFTISRDNSKNTLFLQMNSLRAEDTAVYYCASNDDYWGQGTLVTVSS
VL: EIVLTQSPATLSLSPGERATLSCRASQSVIHYLAWYQQKPGQAPRLLIYDASNRATGIPARFSGSGSGTDFTLTISSLEPEDFAVYYCQQYENWPLTFGQGTKVEIK
notes: not shown: linker
As for B5, the binding result in assay [2] and in assay [3] was “binds” each time.

B6: G1 (GITR Library) (scFv, V domains shown)
VH: QAQLVESGGGVVQAGRSLRLDCKASGITFSNRGMHWVRQAPGKGLEWVAVIWYDGSLRYYADSVKGRFTISRDNSKNTLFLQMNSLRAEDTAVYYCATNDDYWGQGTLVTVSS
VL: EIVLTQSPATLSLSPGERATLSCRASQSVSDNLAWYQQKPGQAPRLLIYDADNRATGIPARFSGSGSGTDFTLTISSLEPEDFAVYYCQQSSNLPRTFGQGTKVEIK
notes: not shown: linker
Take B6: the binding result in assay [4] and in assay [5] was “binds” each time.

B7: G8 (GITR Library) (scFv, V domains shown)
VH: QVQLVESGGGVVQPGRSLRLDCKASGITFSNSGMHWVRQAPGKGLEWVAVIWYDGSLRYYADSVKGRFTISRDNSKNTLFLQMNSLRAEDTAVYYCASNDDYWGQGTLVTVSS
VL: EIVLTQSPATLSLSPGERATLSCRASQSVSDNLAWYQQKPGQAPRLLIYDADNRATGIPARFSGSGSGTDFTLTISSLEPEDFAVYYCQQSSNLPRTFGQGTKVEIK
notes: not shown: linker
As to B7, the binding result in assay [5] and in [6] was “binds” each time.

B8: BDG32.004 (antibody, human IgG1, V domains shown)
VH: QVQLVESGGGVVQPGRSLRLDCKASGFTFSNSGMHWVRQAPGKGLEWVAVIWYDGSLRYYADSVKGRFTISRDNSKNTLFLQMNSLRAEDTAVYYCATNDDYWGQGTLVTVSS
VL: EIVLTQSPATLSLSPGERATLSCRASQSVSDNLQWYQQKPGQAPRLLIYDADTRATGIPARFSGSGSGTDFTLTISSLEPEDFAVYYCQQSSNLPRTFGQGTKVEIK
In the case of B8, the concentration for a half-maximal effect (EC50) in assay [7] was around 13 nM. For the same molecule, the “EC50 (read off the curve)” value in assay [8] is around 2 nM.

B9: G5 (GITR Library) (scFv, V domains shown)
VH: QVQLVESGGGVVHPGRSLRVDCKASGITFSNSGMHWVRQAPGKGLEWVAVIWYDGSLRYYADSVKGRFTISRDNSKNTLFLQMNSLRAEDTAVYYCATNDDYWGQGTLVTVSS
VL: EIVLTQSPATLSLSPGERATLSCRASQSVSDNLAWYQQKPGQAPRLLIYDADNRATGIPARFSGSGSGTDFTLTISSLAPEDFAVYYCQQSSNLPRTFGQGTKVEIK
notes: not shown: linker
With B9, the binding result in assay [5] and in [6] was “binds” each time.

B10: BDG32.007 (antibody, human IgG1, V domains shown)
VH: QVQLVESGGGVVQPGRSLRLDCKASGITFSNSGMHWVRQAPGKGLEWVAVIWYDGSKTYYADSVKGRFTISRDNSKNTLFLQMNSLRAEDTAVYYCATNDDYWGQGTLVTVSS
VL: EIVLTQSPATLSLSPGERATLSCRASQSVEHYLAWYQQKPGQAPRLLIYDAGNRATGIPARFSGSGSGTDFTLTISSLEPEDFAVYYCQQYSDWPLTFGQGTKVEIK
notes: human IgG1 format of clone 3212ACOXC5A
As to B10, the “IC50 (read off the curve); PD-1/PD-L1 Blockade Bioassay, luciferase RLU” value in assay [9] is around 2 nM. Besides, the “IC50, cellular reporter PD1/PDL1 blocking assay (PD-1 dependent luminescence)” value in assay [10] is around 2.5 nM. The EC50 in [11] is around 26 nM. The half-maximal effective concentration (EC50 (read off the curve)) in assay [12] was around 0.6 nM; in assay [13], around 30 nM.

B11: BDG32.008 (antibody, human IgG1, V domains shown)
VH: QVQLVESGGGVVQPGRSLRLDCKASGIDFSNSGMHWVRQAPGKGLEWVAVIWYDGSLRYYADSVKGRFTISRDNSKNTLFLQMNSLRAEDTAVYYCATNDDYWGQGTLVTVSS
VL: EIVLTQSPATLSLSPGERATLSCRASQSVEHYLAWYQQKPGQAPRLLVYDASNRATGIPARFSGSGSGTDFTLTISSLEPEDFAVYYCQQYSNWPLTFGQGTKVEIK
notes: human IgG1 format of clone 3212ACOXC7A
For the molecule B11, the concentration for a half-maximal effect (EC50) in [11] is around 24 nM. Moreover, the “EC50 (read off the curve)” value in assay [12] was around 0.9 nM; in assay [13], around 20 nM.

B12: 3212ACOXC61 (OX40 library) (scFv, V domains shown)
VH: QVQLVESGGGVVQPGRSLRLDCKASGIAFSNSGMHWVRQAPGKGLEWVAVIWYDGSKTYYADSVKGRFTISRDNSKNTLFLQMNSLRAEDTAVYYCATNDDYWGQGTLVTVSS
VL: EIVLTQSPATLSLSPGERATLSCRASQSVIHYLAWYQQKPGQAPRLLIYDASNRATGIPARFSGSGSGTDFTLTISSLEPEDFAVYYCQQYTNWPLTFGQGTKVEIK
notes: not shown: linker
For the molecule B12, the binding result in [2] and in [3] was “binds” in each case.

B13: BDG32.005 (antibody, human IgG1, V domains shown)
VH: QVQLVESGGGVVQPGRSLRLDCKASGITFSNSGMHWVRQAPGKGLEWVAVIWYDGSLRYYADSVKGRFTISRDNSKNTLFLQMNSLRAEDTAVYYCATNDDYWGQGTLVTVSS
VL: EIVLTQSPATLSLSPGERATLSCRASQSVSDNLAWYQQKPGQAPRLLIYDADNRATGIPARFSGSGSGTDFTLTISSLEPEDFAVYYCMQSSNLARTFGQGTKVEIK
notes: human IgG1 format
Take B13: the “IC50, cellular reporter PD1/PDL1 blocking assay (PD-1 dependent luminescence)” value in assay [10] is around 614 nM. Besides, the “EC50 (read off the curve)” value is around 4 nM in assay [14] and around 3 nM in assay [8]. Moreover, in [7], the EC50 is around 4 nM.
